Experimental data reported in patent US20170369590A1 (Genmab, published 2017).

Assays:
HER2ECDHis [1] = target: T1, HER2ECDHis (human, UniProt P04626 23-653, biotinylated in the cross-block ELISA (sites not given)); assay: ELISA; competitor 091
T1 construct: range 1-653; expressed in HEK-293F; also called soluble HER2; biotinylated HER2ECDHis

HER2ECDHis [2] = target: T1, HER2ECDHis; assay: ELISA; competitor tras
Description: (§1) Next, the ELISA wells were washed with PBST (PBS supplemented with 0.05% Tween-20 [Sigma-Aldrich, Zwijndrecht, The Netherlands]) and blocked for one hour at room temperature (RT) with PBSTC (PBST supplemented 2% [v/v] chicken serum [Gibco, Paisley, Scotland]). The ELISA wells were then washed with PBST and incubated for one hour at RT with HER2ECDHis serially diluted in PBSTC (0.25-2 μg/mL in 2-fold dilutions). […] The plate was thereafter washed with PBST and incubated for one hour with 0.1 μg/mL Streptavidin-poly-HRP (Sanquin, Amsterdam, The Netherlands) diluted in PBST. After washing, the reaction was visualized through a 15 minutes incubation with 2,2′-azino-bis (3-ethylbenzothiazoline-6-sulfonic acid) (ABTS: one ABTS tablet diluted in 50 mL ABTS buffer (Roche Diagnostics, Almere, The Netherlands)) at RT protected from light. The colorization was stopped by adding an equal volume of oxalic acid (Sigma-Aldrich, Zwijndrecht, The Netherlands). Fluorescence at 405 nm was measured on a microtiter plate reader (Biotek Instruments, Winooski, USA).
(§2) Each HER2 antibody was coated to the ELISA wells at the sub-optimal dose that was determined as described above. After blocking of the ELISA wells, the wells were incubated with the predetermined concentration of 1 μg/mL biotinylated HER2ECDHis in the presence or absence of an excess of a second (competitor) HER2 antibody. The ELISA was then performed as described above. […] Percentage competition was then determined as 100 minus the percentage of inhibition.

HER2ECDHis [3] = target: T1, HER2ECDHis; assay: ELISA; competitor pert
Description: as §1, §2

[4] = target: T2, human epidermal growth factor receptor 2 (HER2), membrane-bound on cells (human, UniProt P04626 23-1255); assay: cell-based or functional assay
HER2ECDHis [5] = target: T1, HER2ECDHis; assay: ELISA; competitor 098
Description: as §1, §2

[6] = target: T2, human epidermal growth factor receptor …; assay: cell-based or functional assay; remark: listed apart in the source
HER2ECDHis [7] = target: T1, HER2ECDHis; assay: ELISA; competitor 153
Description: as §1, §2

HER2ECDHis [8] = target: T1, HER2ECDHis; assay: ELISA; competitor 169
Description: as §1, §2

HER2ECDHis [9] = target: T1, HER2ECDHis; assay: ELISA; competitor 084
Description: as §1, §2

HER2ECDHis [10] = target: T1, HER2ECDHis; assay: ELISA; competitor 050
Description: as §1, §2

[11] = target: T2, human epidermal growth factor receptor …; assay: cell-based or functional assay; remark: listed apart in the source
HER2ECDHis [12] = target: T1, HER2ECDHis; assay: ELISA; competitor 129
Description: as §1, §2

HER2ECDHis [13] = target: T1, HER2ECDHis; assay: ELISA; competitor 025
Description: as §1, §2

HER2ECDHis [14] = target: T1, HER2ECDHis; assay: ELISA; competitor C1
Description: as §1, §2

HER2ECDHis [15] = target: T1, HER2ECDHis; assay: ELISA; competitor 127
Description: as §1, §2

HER2ECDHis [16] = target: T1, HER2ECDHis; assay: ELISA; competitor F5
Description: as §1, §2

HER2ECDHis [17] = target: T1, HER2ECDHis; assay: ELISA; competitor 132
Description: as §1, §2

HER2ECDHis [18] = target: T1, HER2ECDHis; assay: ELISA; competitor 159
Description: as §1, §2

Binder	% binding vs no competitor (HER2ECDHis [1]) [%]	% binding vs no competitor (HER2ECDHis [2]) [%]	% binding vs no competitor (HER2ECDHis [3]) [%]	Maximal MFI, fab-CypHer5E internalization, AU565 [4] [MFI]	% binding vs no competitor (HER2ECDHis [5]) [%]	% cells killed, AU565, anti-kappa-ETA'-conjugated [6] [%]	EC50 of cell kill, AU565, anti-kappa-ETA'-conjugated [6] [µg/mL]	% binding vs no competitor (HER2ECDHis [7]) [%]	% binding vs no competitor (HER2ECDHis [8]) [%]	% binding vs no competitor (HER2ECDHis [9]) [%]	% binding vs no competitor (HER2ECDHis [10]) [%]	% cells killed, A431, anti-kappa-ETA'-conjugated [11] [%]	% binding vs no competitor (HER2ECDHis [12]) [%]	% binding vs no competitor (HER2ECDHis [13]) [%]	EC50, fab-CypHer5E internalization, AU565 [4] [µg/mL]	EC50 of cell kill, A431, anti-kappa-ETA'-conjugated [11] [µg/mL]	also measured
HuMab 169 (antibody, V domains shown, also called TH1014-169; PC1014-169) VH: QVQLVQSGAEVKKPGASVKVSCKASGYTFTNYGISWVRQAPGQGLEWMGWLSAYSGNTIYAQKLQGRVTMTTDTSTTTAYMELRSLRSDDTAVYYCARDRIVVRPDYFDYWGQGTLVTVSS VL: EIVLTQSPATLSLSPGERATLSCRASQSVSSYLAWYQQKPGQAPRLLIYDASNRATGIPARFSGSGSGTDFTLTISSLEPEDFAVYYCQQRSNWPRTFGQGTKVEIK	105	19	101	38800	105	49.9	0.0356	102	45	73	21	34	106	98	–	–	–
HuMab 159 (antibody, V domains shown, also called TH1014-159; PC1014-159) VH: EVQLVQSGAEVKKPGESLKISCKGSGYNFTSYWIGWVRQMPGKGLEWMGIIYPGDSDTRYSPSFQGQVTISADKSISTAYLQWSSLKASDTAMYYCARWGTYYDILTGYFNWFDPWGQGTLVTVSS VL: DIQMTQSPSSLSASVGDRVTITCRASQGISSWLAWYQQKPEKAPKSLIYAASSLQSGVPSRFSGSGSGTDFTLTISSLQPEDFATYYCQQYYIYPWTFGQGTKVEIK	–	111	112	92400	11	70.3	0.0349	40	–	–	–	–	–	–	–	–	% binding vs no competitor (HER2ECDHis [14]): 96%; % binding vs no competitor (HER2ECDHis [15]): 15%; % binding vs no competitor (HER2ECDHis [16]): 86%; % binding vs no competitor (HER2ECDHis [17]): 79%; % binding vs no competitor (HER2ECDHis [18]): 6%
HuMab 025 (antibody, V domains shown, also called TH1014-025; PC1014-025) VH: QVQLQQWGAGLLKPSETLSLTCAVYGGSFSDYYWNWIRQPPGKGLEWIGEIHHSGSTNYNPSLKSRVTISVDTSKNQFSLKLSSVTAADTAVYYCARGYYDSGVYYFDYWAQGTLVTVSS VL: DIQMTQSPSSLSASVGDRVTITCRASQGISRWLAWYQQKPEKAPKSLIYAASSLRSGVPSRFSGSGSGTDFTLTISSLQPEDFATYYCQQYNSYPITFGQGTRLEIK	21	98	8	63400	102	60	0.0167	99	98	104	100	86.7	15	18	0.0301	~0.00977	–
HuMab 091 (antibody, V domains shown, also called TH1014-091; PC1014-091) VH: QVQLQQWGAGLLKPSETLSLTCAVSGGSFSGYYWTWIRQPPGKGLEWIGEIYHSGDTNYNPSLKSRVTISVDTSKNQFSLKLYSVTAADTAVYYCARLYFGSGIYYLDYWGQGTLVTVSS VL: DIQMTQSPSSLSASVGDRVTITCRASQGISSWLVWYQQKPEKAPKSLIYAASSLQSGVPSRFSGSGSGTDFTLTISSLQPEDFATYYCQQYNSFPPTFGQGTKVEIK	15	99	5	50700	98	50.6	0.0465	98	99	100	95	83.3	78	13	0.033	~0.00986	–
HuMab 084 (antibody, V domains shown, also called TH1014-084; PC1014-084) VH: QVQLVQSGAEVKKPGSSVKVSCKASGGTFRTYAINWVRQAPGQGLEWMGRINTVLGIVNHAQKFQGRVTITADKSTNTAYMELNSLRSEDTAVYYCAREKGVDYYYGIEVWGQGTTVTVSS VL: DIQMTQSPSSVSASVGDRVTITCRASQGISSWLAWYQHKPGKAPKLLIYVASTLQSGVPSRFSGSGSGTDFTLTISSLQPEDFATYYCQQANSFPLTFGGGTKVEIK	104	74	101	71100	109	58.1	0.027	98	73	20	76	50.5	104	106	0.0305	–	–
HuMab 050 (antibody, V domains shown, also called TH1014-050; PC1014-050) VH: EVQLLESGGGLVQPGGSLRLSCAASGFTFSSYAMNWVRQAPGKGLEWVSAISGRGGTTYYADSVKGRFTISRDNSKNTLYLQMSSLRAEDTAVYYCAKARANWDYFDYWGQGTLVTVSS VL: DIQMTQSPSSVSASVGDRVTITCRASQGISSWLAWYQHKPGKAPKLLIYAASILQSGVPSRFSGSGSGTDFTLTISSLQPEDFATYYCQQANSFPITFGQGTRLEIK	98	13	95	–	102	52.4	0.0127	104	30	74	12	–	110	104	–	–	–
HuMab 129 (antibody, V domains shown) VH: QVQLVESGGGVVQPGRSLRLSCAASGFTFSTFAIHWVRQAPGKGLEWVAVISYDGGHKFYADSVKGRFTISRDNSKNTLYLQMNSLRAEDTAMYYCARGLGVWGAFDYWGQGTLVTVSS VL: EIVLTQSPATLSLSPGERATLSCRASQSVSSYLAWYQQKPGQAPRLLIYDASNRATGIPARFSGSGSGTDFTLTISSLEPEDFAVYYCQQRSNWWTFGQGTKVEIK	76	93	22	60300	106	60.8	0.0309	98	99	92	97	75.9	12	55	0.00715	~0.0106	–
HuMab 127 (antibody, V domains shown) VH: EVQLVQSGAEVKKPGESLTISCKGSGYSFSIYWIGWVRQMPGKGLEWMGIIFPGDSDIRYSPSFQGQVTISADKSISTAYLQWSSLKASDTAMYYCARQPGDWSPRHWYFDLWGRGTLVTVSS VL: VIWMTQSPSLLSASTGDRVTISCRMSQGISSYLAWYQQKPGKAPELLIYAASTLQSGVPSRFSGSGSGTDFTLTISYLQSEDFATYYCQQYYSFPLTFGGGTKVEIK	–	102	–	138000	58	69	0.0345	21	–	–	–	–	–	–	~0.00968	–	% binding vs no competitor (HER2ECDHis [14]): 112%; % binding vs no competitor (HER2ECDHis [15]): 11%; % binding vs no competitor (HER2ECDHis [16]): 88%; % binding vs no competitor (HER2ECDHis [17]): 44%; % binding vs no competitor (HER2ECDHis [18]): 8%
